Measured values as given in the Human Domainome abundance scans (Beltran et al. 2025).
± gives the uncertainty stated by the source.

B1: Cullin-9, residues 2234 to 2275; numbered along this chain, Q8IWT3 (parent)
chain: KRCPSCQAPIEKNEGCLHMTCAKCNHGFCWRCLKSWKPNHKD

Variants of: B1
Assay: abundance fitness (aPCA) (normalised: wild type 0, dead -1); higher = more abundant; growth selection in yeast, the domain comes from the species named
Conditions: Homo sapiens

Variant | abundance fitness
KRCPSCQAPIEKNEGCLHMTCAKCNHGYCWRCLKSWKPNHKD [F28Y] | -0.049 ± 0.21
KRCPSCQAPIEKNEGCLHMTCAKCNHGFCWRCLKSFKPNHKD [W36F] | -0.194 ± 0.19
KRCPSCQAPIEKNEGCLHMTCAKCNHGFCWRCLKSGKPNHKD [W36G] | -0.026 ± 0.072
KRCPSCQAPIEKNEGCLHMTCAKCNHGFCWRCLKSCKPNHKD [W36C] | -0.391 ± 0.18
KRCPSCQAPIEKNEGCLHMTCAKCNHGFCWRCLKSAKPNHKD [W36A] | 0.029 ± 0.078
KRCPSCQAPIEKNEGCLHMTCAKCNHGFCWRCLKSDKPNHKD [W36D] | 0.255 ± 0.12
KRCPSCQAPIEKNEGCLHMTCAKCNHGFCWRCSKSWKPNHKD [L33S] | -0.623 ± 0.11
KRCPSCQAPIEKNEGCLHMTCAKCNHGFCWRCWKSWKPNHKD [L33W] | -0.48 ± 0.12
KRCPSCQAPIEKNEGCLHMTCAKCNHGFCWRCRKSWKPNHKD [L33R] | -0.418 ± 0.079
KRCPSCQAPIEKNEGCLHMTCAKCNHGFCWRCFKSWKPNHKD [L33F] | -0.451 ± 0.15
KRCPSCQAPIEKNEGCLHMTCAKCNHGFCWRCMKSWKPNHKD [L33M] | -0.096 ± 0.1
KRCPSCQAPIEKNEGCLHMTCAKCNHGFCWRCQKSWKPNHKD [L33Q] | -0.125 ± 0.099
KRCPSCQAPIEKNEGCLHMTCAKCNHGFCWRCHKSWKPNHKD [L33H] | -0.321 ± 0.2
KRCPSCQAPIEKNEGCLHMTCAKCNHGFCWRCKKSWKPNHKD [L33K] | -0.184 ± 0.16
KRCPSCQAPIEKNEGCLHMTCAKCNHGFCWRCTKSWKPNHKD [L33T] | -0.29 ± 0.099
KRCPSCQAPIEKNEGCLHMTCAKCNHGFCWRCCKSWKPNHKD [L33C] | -0.412 ± 0.13
KRCPSCQAPIEKNEGCLHMTCAKCNHGFCWRCEKSWKPNHKD [L33E] | 0.02 ± 0.098
KRCPSCQAPIEKNEGCLHMTCAKCNHGFCWRCNKSWKPNHKD [L33N] | -0.432 ± 0.11
KRCPSCQAPIEKNEGCLHMTCAKCNHGFCWRCIKSWKPNHKD [L33I] | -0.501 ± 0.19
KRCPSCQAPIEKNEGCLHMTCAKCNHGFCWRCPKSWKPNHKD [L33P] | -0.464 ± 0.12

Variant | abundance fitness
KRCPSCQAPIEKNEGCLHMTCAKCNHGFCWRCYKSWKPNHKD [L33Y] | -0.512 ± 0.21
KRCPSCQAPIEKNEGCLHMTCAKCNHGFCWRCDKSWKPNHKD [L33D] | -0.235 ± 0.13
KRCPSCQAPIEKNEGCLHMTCAKCNHGFCWRCVKSWKPNHKD [L33V] | -0.414 ± 0.086
KRCPSCQAPIEKNEGCLHMTCAKCNHGFWWRCLKSWKPNHKD [C29W] | -1.17 ± 0.17
KRCPSCQAPIEKNEGCLHMTCAKCNHGFYWRCLKSWKPNHKD [C29Y] | -0.847 ± 0.21
KRCPSCQAPIEKNEGCLHMTCAKCNHGFVWRCLKSWKPNHKD [C29V] | -0.969 ± 0.11
KRCPSCQAPIEKNEGCLHMTCAKCNHGFNWRCLKSWKPNHKD [C29N] | -0.761 ± 0.39
KRCPSCQAPIEKNEGCLHMTCAKCNHGFQWRCLKSWKPNHKD [C29Q] | -0.563 ± 0.12
KRCPSCQAPIEKNEGCLHMTCAKCNHGFMWRCLKSWKPNHKD [C29M] | -0.969 ± 0.22
KRCPSCQAPIEKNEGCLHMTCAKCNHGFGWRCLKSWKPNHKD [C29G] | -0.737 ± 0.093
KRCPSCQAPIEKNEGCLHMTCAKCNHGFAWRCLKSWKPNHKD [C29A] | -0.76 ± 0.11
KRCPSCQAPIEKNEGCLHMTCAKCNHGFLWRCLKSWKPNHKD [C29L] | -0.696 ± 0.1
KRCPSCQAPIEKNEGCLHMTCAKCNHGFFWRCLKSWKPNHKD [C29F] | -1.53 ± 0.46
KRCPSCQAPIEKNEGCLHMTCAKCNHGFRWRCLKSWKPNHKD [C29R] | -0.888 ± 0.096
KRCPSCQAPIEKNEGCLHMTCAKCNHGFKWRCLKSWKPNHKD [C29K] | -0.632 ± 0.17
KRCPSCQAPIEKNEGCLHMTCAKCNHGFHWRCLKSWKPNHKD [C29H] | -0.532 ± 0.16
KRCPSCQAPIEKNEGCLHMTCAKCNHGFSWRCLKSWKPNHKD [C29S] | -0.749 ± 0.12
KRCPSCQAPIEKNEGCLHMTCAKCNHGFEWRCLKSWKPNHKD [C29E] | -0.432 ± 0.11
KRCPSCQAPIEKNEGCLHMTCAKCNHGFCWRCLKVWKPNHKD [S35V] | -0.132 ± 0.079
KRCPSCQAPIEKNEGCLHMTCAKCNHGFCWRCLKDWKPNHKD [S35D] | 0.003 ± 0.2

Variant | abundance fitness
KRCPSCQAPIEKNEGCLHMTCAKCNHGFCWRCLKNWKPNHKD [S35N] | -0.092 ± 0.33
KRCPSCQAPIEKNEGCLHMTCAKCNHGFCWRCLKYWKPNHKD [S35Y] | -0.463 ± 0.23
KRCPSCQAPIEKNEGCLHMTCAKCNHGFCWRCLKCWKPNHKD [S35C] | -0.195 ± 0.14
KRCPSCQAPIEKNEGCLHMTCAKCNHGFCWRCLKLWKPNHKD [S35L] | 0.078 ± 0.09
KRCPSCQAPIEKNEGCLHMTCAKCNHGFCWRCLKAWKPNHKD [S35A] | 0.049 ± 0.083
KRCPSCQAPIEKNEGCLHMTCAKCNHGFCWRCLKTWKPNHKD [S35T] | 0.044 ± 0.17
KRCPSCQAPIEKNEGCLHMTCAKCNHGFCWRCLKKWKPNHKD [S35K] | -0.155 ± 0.12
KRCPSCQAPIEKNEGCLHMTCAKCNHGFCWRCLKHWKPNHKD [S35H] | -0.373 ± 0.24
KRCPSCQAPIEKNEGCLHMTCAKCNHGFCWRCLKIWKPNHKD [S35I] | -0.438 ± 0.3
KRCPSCQAPIEKNEGCLHMTCAKCNHGFCWRCLKFWKPNHKD [S35F] | 0.187 ± 0.17
KRCPSCQAPIEKNEGCLHMTCAKCNHGFCWRCLKEWKPNHKD [S35E] | 0.17 ± 0.084
KRCPSCQAPIEKNEGCLHMTCAKCNHGFCWRCLKWWKPNHKD [S35W] | -0.23 ± 0.12
KRCPSCQAPIEKNEGCLHMTCAKCNHGFCWRCLKPWKPNHKD [S35P] | 0.446 ± 0.14
KRCPSCQAPIEKNEGCLHMTCAKCNHGFCWRCLKQWKPNHKD [S35Q] | 0.068 ± 0.12
KRCPSCQAPIEKNEGCLHMTCAKCNHGFCWRCLKRWKPNHKD [S35R] | -0.356 ± 0.097
KRCPSCQAPIEKNEGCLHMTCAKCNHGFCWRCLKMWKPNHKD [S35M] | 0.037 ± 0.16
KRCPSCQAPIEKNEGCLHMTCAKCNHGFCWRCLLSWKPNHKD [K34L] | -0.639 ± 0.099
KRCPSCQAPIEKNEGCLHMTCAKCNHGFCWRCLSSWKPNHKD [K34S] | -0.18 ± 0.094
KRCPSCQAPIEKNEGCLHMTCAKCNHGFCWRCLHSWKPNHKD [K34H] | -0.252 ± 0.15
KRCPSCQAPIEKNEGCLHMTCAKCNHGFCWRCLGSWKPNHKD [K34G] | -0.194 ± 0.073
